Target: human plasma kallikrein (human, UniProt P03952 20-390; P03952 391-638)
Test: cell-based or functional assay

Chain of human plasma kallikrein (P03952 20-390, chain 1 of 2): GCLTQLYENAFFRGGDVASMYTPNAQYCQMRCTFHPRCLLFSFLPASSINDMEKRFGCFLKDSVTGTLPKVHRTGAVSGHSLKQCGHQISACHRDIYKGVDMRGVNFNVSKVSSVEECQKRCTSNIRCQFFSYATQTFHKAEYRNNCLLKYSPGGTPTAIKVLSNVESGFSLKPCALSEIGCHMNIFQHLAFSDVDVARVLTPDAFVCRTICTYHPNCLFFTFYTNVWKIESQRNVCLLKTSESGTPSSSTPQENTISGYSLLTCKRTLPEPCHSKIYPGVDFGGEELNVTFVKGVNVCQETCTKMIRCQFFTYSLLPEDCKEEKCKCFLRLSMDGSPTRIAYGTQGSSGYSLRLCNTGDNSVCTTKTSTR
Chain of human plasma kallikrein (P03952 391-638, chain 2 of 2): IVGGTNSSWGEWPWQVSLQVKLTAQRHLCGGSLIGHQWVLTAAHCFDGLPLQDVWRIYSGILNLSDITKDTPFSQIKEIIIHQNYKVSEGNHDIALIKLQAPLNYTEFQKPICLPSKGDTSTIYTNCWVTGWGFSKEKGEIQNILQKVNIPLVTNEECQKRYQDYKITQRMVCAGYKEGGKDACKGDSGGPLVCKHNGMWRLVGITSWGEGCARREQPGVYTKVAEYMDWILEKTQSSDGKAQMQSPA

Binder	% inhibition at 10 nM
M197-A01 (Fab, V domains shown) VH: EVQLLESGGGLVQPGGSLRLSCAASGFTFSIYDMIWVRQAPGKGLEWVSSIYPSGGNTSYADSVKGRFTISRDNSKNTLYLQMNSLRAEDTAVYYCAYRRTGIPRRDAFDIWGQGTMVTVSS VL: DIQMTQSPSTLSASVGDRVTITCRASQSISSWLAWYQQKPGKAPNLLIYKASTLESGVPSRFSGSGSGTEFTLTISSLQPDDFATYYCQQYNTYWTFGQGTKVEIK	95.3%
M198-E02 (Fab, V domains shown) VH: EVQLLESGGGLVQPGGSLRLSCAASGFTFSIYSMYWVRQAPGKGLEWVSYIRPSGGNTKYADSVKGRFTISRDNSKNTLYLQMNSLRAEDTAVYYCAYRRTGIPRRDAFDIWGQGTMVTVSS VL: DIQMTQSPSTLSASVGDRVTITCRASQSISSWLAWYQQKPGKAPNLLIYKASTLESGVPSRFSGSGSGTEFTLTISSLQPDDFATYYCQQYNTYWTFGQGTKVEIK	90.3%
M198-H08 (Fab, V domains shown) VH: EVQLLESGGGLVQPGGSLRLSCAASGFTFSIYDMYWVRQAPGKGLEWVSSIGPSGGPTAYADSVKGRFTISRDNSKNTLYLQMNSLRAEDTAVYYCAYRRTGIPRRDAFDIWGQGTMVTVSS VL: DIQMTQSPSTLSASVGDRVTITCRASQSISSWLAWYQQKPGKAPNLLIYKASTLESGVPSRFSGSGSGTEFTLTISSLQPDDFATYYCQQYNTYWTFGQGTKVEIK	92.3%
M202-A01 (Fab, V domains shown) VH: EVQLLESGGGLVQPGGSLRLSCAASGFTFSHYIMMWVRQAPGKGLEWVSGIYSSGGITVYADSVKGRFTISRDNSKNTLYLQMNSLRAEDTAVYYCAYRRIGVPRRDAFDIWGQGTMVTVSS VL: DIQMTQSPSTLSASVGDRVTITCRASQSISSWLAWYQQKPGKAPNLLIYKASTLESGVPSRFSGSGSGTEFTLTISSLQPDDFATYYCQQYNTYWTFGQGTKVEIK	88.9%
M198-G07 (Fab, V domains shown) VH: EVQLLESGGGLVQPGGSLRLSCAASGFTFSIYDMTWVRQAPGKGLEWVSSIYPSGGQTIYADSVKGRFTISRDNSKNTLYLQMNSLRAEDTAVYYCAYRRTGIPRRDAFDIWGQGTMVTVSS VL: DIQMTQSPSTLSASVGDRVTITCRASQSISSWLAWYQQKPGKAPNLLIYKASTLESGVPSRFSGSGSGTEFTLTISSLQPDDFATYYCQQYNTYWTFGQGTKVEIK	94.9%
M202-G03 (Fab, V domains shown) VH: EVQLLESGGGLVQPGGSLRLSCAASGFTFSHYIMMWVRQAPGKGLEWVSGIYSSGGITVYADSVKGRFTISRDNSKNTLYLQMNSLRAEDTAVYYCAFRRTGVPRRDSFEIWGQGTMVTVSS VL: DIQMTQSPSTLSASVGDRVTITCRASQSISSWLAWYQQKPGKAPNLLIYKASTLESGVPSRFSGSGSGTEFTLTISSLQPDDFATYYCQQYNTYWTFGQGTKVEIK	88.3%
M198-E09 (Fab, V domains shown) VH: EVQLLESGGGLVQPGGSLRLSCAASGFTFSIYDMNWVRQAPGKGLEWVSSIYPSGGRTRYADSVKGRFTISRDNSKNTLYLQMNSLRAEDTAVYYCAYRRTGIPRRDAFDIWGQGTMVTVSS VL: DIQMTQSPSTLSASVGDRVTITCRASQSISSWLAWYQQKPGKAPNLLIYKASTLESGVPSRFSGSGSGTEFTLTISSLQPDDFATYYCQQYNTYWTFGQGTKVEIK	93.1%
M197-A08 (Fab, V domains shown) VH: EVQLLESGGGLVQPGGSLRLSCAASGFTFSIYSMQWVRQAPGKGLEWVSSIGSSGGKTLYADSVKGRFTISRDNSKNTLYLQMNSLRAEDTAVYYCAYRRTGIPRRDAFDIWGQGTMVTVSS VL: DIQMTQSPSTLSASVGDRVTITCRASQSISSWLAWYQQKPGKAPNLLIYKASTLESGVPSRFSGSGSGTEFTLTISSLQPDDFATYYCQQYNTYWTFGQGTKVEIK	93.7%
M197-F03 (Fab, V domains shown) VH: EVQLLESGGGLVQPGGSLRLSCAASGFTFSIYSMFWVRQAPGKGLEWVSSIGPSGGVTHYADSVKGRFTISRDNSKNTLYLQMNSLRAEDTAVYYCAYRRTGIPRRDAFDIWGQGTMVTVSS VL: DIQMTQSPSTLSASVGDRVTITCRASQSISSWLAWYQQKPGKAPNLLIYKASTLESGVPSRFSGSGSGTEFTLTISSLQPDDFATYYCQQYNTYWTFGQGTKVEIK	90.7%
M197-F01 (Fab, V domains shown) VH: EVQLLESGGGLVQPGGSLRLSCAASGFTFSIYHMYWVRQAPGKGLEWVSSIGPSGGPTGYADSVKGRFTISRDNSKNTLYLQMNSLRAEDTAVYYCAYRRTGIPRRDAFDIWGQGTMVTVSS VL: DIQMTQSPSTLSASVGDRVTITCRASQSISSWLAWYQQKPGKAPNLLIYKASTLESGVPSRFSGSGSGTEFTLTISSLQPDDFATYYCQQYNTYWTFGQGTKVEIK	92.6%

Other lines, results leading:

% inhibition at 10 nM	Binder
87.7%	M195-B12 (Fab, V domains shown) VH: EVQLLESGGGLVQPGGSLRLSCAASGFTFSKYWMYWVRQAPGKGLEWVSYIRPSGGQTYYADSVKGRFTISRDNSKNTLYLQMNSLRAEDTAVYYCAYRRTGIPRRDAFDIWGQGTMVTVSS VL: DIQMTQSPSTLSASVGDRVTITCRASQSISSWLAWYQQKPGKAPNLLIYKASTLESGVPSRFSGSGSGTEFTLTISSLQPDDFATYYCQQYNTYWTFGQGTKVEIK
92.5%	M198-E11 (Fab, V domains shown) VH: EVQLLESGGGLVQPGGSLRLSCAASGFTFSTYSMYWVRQAPGKGLEWVSSIYPSGGLTWYADSVKGRFTISRDNSKNTLYLQMNSLRAEDTAVYYCAYRRTGIPRRDAFDIWGQGTMVTVSS VL: DIQMTQSPSTLSASVGDRVTITCRASQSISSWLAWYQQKPGKAPNLLIYKASTLESGVPSRFSGSGSGTEFTLTISSLQPDDFATYYCQQYNTYWTFGQGTKVEIK
90.8%	M195-D12 (Fab, V domains shown) VH: EVQLLESGGGLVQPGGSLRLSCAASGFTFSIYGMFWVRQAPGKGLEWVSGIGPSGGPTKYADSVKGRFTISRDNSKNTLYLQMNSLRAEDTAVYYCAYRRTGIPRRDAFDIWGQGTMVTVSS VL: DIQMTQSPSTLSASVGDRVTITCRASQSISSWLAWYQQKPGKAPNLLIYKASTLESGVPSRFSGSGSGTEFTLTISSLQPDDFATYYCQQYNTYWTFGQGTKVEIK
94.1%	M197-H10 (Fab, V domains shown) VH: EVQLLESGGGLVQPGGSLRLSCAASGFTFSSYNMHWVRQAPGKGLEWVSSIVPSGGKTNYADSVKGRFTISRDNSKNTLYLQMNSLRAEDTAVYYCAYRRTGIPRRDAFDIWGQGTMVTVSS VL: DIQMTQSPSTLSASVGDRVTITCRASQSISSWLAWYQQKPGKAPNLLIYKASTLESGVPSRFSGSGSGTEFTLTISSLQPDDFATYYCQQYNTYWTFGQGTKVEIK
93%	M198-C10 (Fab, V domains shown) VH: EVQLLESGGGLVQPGGSLRLSCAASGFTFSHYMGMNWVRQAPGKGLEWVSSIVPSGGWTQYADSVKGRFTISRDNSKNTLYLQMNSLRAEDTAVYYCAYRRTGIPRRDAFDIWGQGTMVTVSS VL: DIQMTQSPSTLSASVGDRVTITCRASQSISSWLAWYQQKPGKAPNLLIYKASTLESGVPSRFSGSGSGTEFTLTISSLQPDDFATYYCQQYNTYWTFGQGTKVEIK
89.1%	M198-A02 (Fab, V domains shown) VH: EVQLLESGGGLVQPGGSLRLSCAASGFTFSRYSMIWVRQAPGKGLEWVSSIWSSGGATEYADSVKGRFTISRDNSKNTLYLQMNSLRAEDTAVYYCAYRRTGIPRRDAFDIWGQGTMVTVSS VL: DIQMTQSPSTLSASVGDRVTITCRASQSISSWLAWYQQKPGKAPNLLIYKASTLESGVPSRFSGSGSGTEFTLTISSLQPDDFATYYCQQYNTYWTFGQGTKVEIK
92.9%	M198-F04 (Fab, V domains shown) VH: EVQLLESGGGLVQPGGSLRLSCAASGFTFSIYDMWWVRQAPGKGLEWVSSIRPSGGITKYADSVKGRFTISRDNSKNTLYLQMNSLRAEDTAVYYCAYRRTGIPRRDAFDIWGQGTMVTVSS VL: DIQMTQSPSTLSASVGDRVTITCRASQSISSWLAWYQQKPGKAPNLLIYKASTLESGVPSRFSGSGSGTEFTLTISSLQPDDFATYYCQQYNTYWTFGQGTKVEIK
93.5%	M198-B09 (Fab, V domains shown) VH: EVQLLESGGGLVQPGGSLRLSCAASGFTFSVYSMTWVRQAPGKGLEWVSSIGSSGGSTTYADSVKGRFTISRDNSKNTLYLQMNSLRAEDTAVYYCAYRRTGIPRRDAFDIWGQGTMVTVSS VL: DIQMTQSPSTLSASVGDRVTITCRASQSISSWLAWYQQKPGKAPNLLIYKASTLESGVPSRFSGSGSGTEFTLTISSLQPDDFATYYCQQYNTYWTFGQGTKVEIK
91.5%	M202-E06 (Fab, V domains shown) VH: EVQLLESGGGLVQPGGSLRLSCAASGFTFSHYIMMWVRQAPGKGLEWVSGIYSSGGITVYADSVKGRFTISRDNSKNTLYLQMNSLRAEDTAVYYCAYRRRGVPRRDDFDIWGQGTMVTVSS VL: DIQMTQSPSTLSASVGDRVTITCRASQSISSWLAWYQQKPGKAPNLLIYKASTLESGVPSRFSGSGSGTEFTLTISSLQPDDFATYYCQQYNTYWTFGQGTKVEIK
93%	M197-E12 (Fab, V domains shown) VH: EVQLLESGGGLVQPGGSLRLSCAASGFTFSTYTMRWVRQAPGKGLEWVSSIYPSGGKTQYADSVKGRFTISRDNSKNTLYLQMNSLRAEDTAVYYCAYRRTGIPRRDAFDIWGQGTMVTVSS VL: DIQMTQSPSTLSASVGDRVTITCRASQSISSWLAWYQQKPGKAPNLLIYKASTLESGVPSRFSGSGSGTEFTLTISSLQPDDFATYYCQQYNTYWTFGQGTKVEIK
92.9%	M197-H11 (Fab, V domains shown) VH: EVQLLESGGGLVQPGGSLRLSCAASGFTFSIYNMIWVRQAPGKGLEWVSSIYPSGGWTTYADSVKGRFTISRDNSKNTLYLQMNSLRAEDTAVYYCAYRRTGIPRRDAFDIWGQGTMVTVSS VL: DIQMTQSPSTLSASVGDRVTITCRASQSISSWLAWYQQKPGKAPNLLIYKASTLESGVPSRFSGSGSGTEFTLTISSLQPDDFATYYCQQYNTYWTFGQGTKVEIK
91.8%	M198-F08 (Fab, V domains shown) VH: EVQLLESGGGLVQPGGSLRLSCAASGFTFSVYSMWWVRQAPGKGLEWVSSISSSGGMTEYADSVKGRFTISRDNSKNTLYLQMNSLRAEDTAVYYCAYRRTGIPRRDAFDIWGQGTMVTVSS VL: DIQMTQSPSTLSASVGDRVTITCRASQSISSWLAWYQQKPGKAPNLLIYKASTLESGVPSRFSGSGSGTEFTLTISSLQPDDFATYYCQQYNTYWTFGQGTKVEIK

Reference: patent US9266964
